For assay [1], the target named is human HER3 expressed on cells (HEK293 HER3 O/E cells) (human) (UniProt P21860). The experiment in a line: flow cytometry, HEK293 cells overexpressing human HER3, 20 ug/ml antibody, FITC anti-Fc secondary; same antibody on WT HEK293: 1.68.
The target is the same in assay [2]. The experiment in a line: flow cytometry, HEK293 cells overexpressing human HER3, 20 ug/ml antibody, FITC anti-Fc secondary; same antibody on WT HEK293: 0.07.
The target of another assay is FcRn (human) (UniProt P55899). Put plainly: Bio-Layer Interferometry (determined as described in Example 7).
Assay [3] deals with His-tagged FcγRIIIa (V158) (human) (UniProt P08637). The description is as above.
For another assay, the target named is moFcRn (mouse) (UniProt Q61559). The assay is described as above.
For a further assay, the target named is moFcgRIV. Described as above.
The target of a further assay is FcgRIIIA (F158) (human) (UniProt P08637). The description is as above.
Assay [4] addresses human HER3 expressed on cells (HEK293 HER3 O/E cells) (human) (UniProt P21860). The experiment in a line: flow cytometry on HEK293T HER3 O/E cells, 10 ug antibody as printed, FITC-conjugated anti-Fc secondary.

On to Isotype (antibody), for which the % Parent (HE3 positive) in assay [1] stood at 13.9%. Besides, the % Parent (HER3 positive) in assay [2] amounted to 0.12%.
For LJM716 (antibody), the Kd in the assay with FcRn (human) was 16.5 nM; in assay [3], 705 nM; with moFcRn (mouse), 12.8 nM; in the assay with moFcgRIV, 701 nM; with FcgRIIIA (F158) (human) it was 5380 nM.
Regarding hIgG1 Isotype (antibody), in assay [4], the % Parent (HER3 positive) stood at 0.18%.

The values are drawn from patent publication US20250122303A1, “TREATMENT AND PREVENTION OF CANCER USING HER3 ANTIGEN-BINDING MOLECULES” (Hummingbird Bioscience Pte. Ltd., priority 2021, published 2025).
